Laboratory results taken from patent US7468258.

Target: T1, recombinant His-tagged VWF73 peptide substrate labeled with two fluoresceins
T1 chain: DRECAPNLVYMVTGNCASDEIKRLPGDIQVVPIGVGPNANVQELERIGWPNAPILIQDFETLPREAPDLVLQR

B1: ADAMTS13 (A Disintegrin-like And Metalloprotease with ThromboSpondin type 1 motif) (protein)
chain: AAGGILHLELLVAVGPDVFQAHQEDTERYVLTNLNIGAELLRDPSLGAQFRVHLVKMVILTEPEGAPNITANLTSSLLSVCGWSQTINPEDDTDPGHADLVLYITRFDLELPDGNRQVRGVTQLGGACSPTWSCLITEDTGFDLGVTIAHEIGHSFGLEHDGAPGSGCGPSGHVMASDGAAPRAGLAWSPCSRRQLLSLLSAGRARCVWDPPRPQPGSAGHPPDAQPGLYYSANEQCRVAFGPKAVACTFAREHLDMCQALSCHTDPLDQSSCSRLLVPLLDGTECGVEKWCSKGRCRSLVELTPIAAVHGRWSSWGPRSPCSRSCGGGVVTRRRQCNNPRPAFGGRACVGADLQAEMCNTQACEKTQLEFMSQQCARTDGQPLRSSPGGASFYHWGAAVPHSQGDALCRHMCRAIGESFIMKRGDSFLDGTRCMPSGPREDGTLSLCVSGSCRTFGCDGRMDSQQVWDRCQVCGGDNSTCSPRKGSFTAGRAREYVTFLTVTPNLTSVYIANHRPLFTHLAVRIGGRYVVAGKMSISPNTTYPSLLEDGRVEYRVALTEDRLPRLEEIRIWGPLQEDADIQVYRRYGEEYGNLTRPDITFTYFQPKPRQAWVWAAVRGPCSVSCGAGLRWVNYSCLDQARKELVETVQCQGSQQPPAWPEACVLEPCPPYWAVGDFGPCSASCGGGLRERPVRCVEAQGSLLKTLPPARCRAGAQQPAVALETCNPQPCPARWEVSEPSSCTSAGGAGLALENETCVPGADGLEAPVTEGPGSVDEKLPAPEPCVGMSCPPGWGHLDATSAGEKAPSPWGSIRTGAQAAHVWTPAAGSCSVSCGRGLMELRFLCMDSALRVPVQEELCGLASKPGSRREVCQAVPCPARWQYKLAACSVSCGRGVVRRILYCARAHGEDDGEEILLDTQCQGLPRPEPQEACSLEPCPPRWKVMSLGPCSASCGLGTARRSVACVQLDQGQDVEVDEAACAALVRPEASVPCLIADCTYRWHVGTWMECSVSCGDGIQRRRDTCLGPQAQAPVPADFCQHLPKPVTVRGCWAGPCVGQGTPSLVPHEEAAAPGRTTATPAGASLEWSQARGLLFSPAPQPRRLLPGPQENSVQSSACGRQHLEPTGTIDMRGPGQADCAVAIGRPLGEVVTLRVLESSLNCSAGDMLLLWGRLTWRKMCRKLLDMTFSSKTNTLVVRQRCGRPGGGVLLRYGSQLAPETFYRECDMQLFGPWGEIVSPSLSPATSNAGGCRLFINVAPHARIAIHALATNMGAGTEGANASYILIRDTHSLRTTAFHGQQVLYWESESSQAEMEFSEGFLKAQASLRGQYWTLQSWVPEMQDPQSWKGKEGT
Q: How did the “fluorescence of the recombinant peptide during incubation (FRET self-quenching cleavage assay, 96 well plate, fluorometer)” value turn out when B1 was run?
A: With normal pooled plasma (PNP), there is steady increase of fluorescence over time
